Laboratory results: patent US7091311 (GlaxoSmithKline, dated 2006)
*1 amine or outer side, *2 acyl side, *3 side chain or, on linkers, in order; H or OH if unused. Bridges are numbered along the chain shown (N, C = ends). Where no end group is shown, it is not given here. [ ]: non-standard residue; d: D form. Phe(4-NO2) = N[C@@H](Cc1ccc([N+](=O)[O-])cc1)C(=O)O; Phe(3,4-Cl2) = N[C@@H](Cc1ccc(Cl)c(Cl)c1)C(=O)O; DiPhAla = diphenylalanine (source's own name); Ser(Bzl) = O=C([C@H](COCc1ccccc1)N[*:1])[*:2]; Phe(4-Cl) = N[C@@H](Cc1ccc(Cl)cc1)C(=O)O; 1Nal = N[C@@H](Cc1cccc2ccccc12)C(=O)O; 2Nal = N[C@@H](Cc1ccc2ccccc2c1)C(=O)O; NMeF = CN[C@@H](Cc1ccccc1)C(=O)O; hPhe = N[C@@H](CCc1ccccc1)C(=O)O; 2Thi = N[C@@H](Cc1cccs1)C(=O)O; Cha = N[C@@H](CC1CCCCC1)C(=O)O; NMeL = CN[C@@H](CC(C)C)C(=O)O; Phg = N[C@H](C(=O)O)c1ccccc1; Tle = CC(C)(C)[C@H](N)C(=O)O; NMeV = CN[C@H](C(=O)O)C(C)C; NMeA = CN[C@@H](C)C(=O)O; Nle = CCCC[C@H](N)C(=O)O; Nva = CCC[C@H](N)C(=O)O; Abu = CC[C@H](N)C(=O)O; Aib = CC(C)(N)C(=O)O; Sar = CNCC(=O)O

T1: full length human TPO-R (human, UniProt P40238 26-635)
T1 sequence (looked up): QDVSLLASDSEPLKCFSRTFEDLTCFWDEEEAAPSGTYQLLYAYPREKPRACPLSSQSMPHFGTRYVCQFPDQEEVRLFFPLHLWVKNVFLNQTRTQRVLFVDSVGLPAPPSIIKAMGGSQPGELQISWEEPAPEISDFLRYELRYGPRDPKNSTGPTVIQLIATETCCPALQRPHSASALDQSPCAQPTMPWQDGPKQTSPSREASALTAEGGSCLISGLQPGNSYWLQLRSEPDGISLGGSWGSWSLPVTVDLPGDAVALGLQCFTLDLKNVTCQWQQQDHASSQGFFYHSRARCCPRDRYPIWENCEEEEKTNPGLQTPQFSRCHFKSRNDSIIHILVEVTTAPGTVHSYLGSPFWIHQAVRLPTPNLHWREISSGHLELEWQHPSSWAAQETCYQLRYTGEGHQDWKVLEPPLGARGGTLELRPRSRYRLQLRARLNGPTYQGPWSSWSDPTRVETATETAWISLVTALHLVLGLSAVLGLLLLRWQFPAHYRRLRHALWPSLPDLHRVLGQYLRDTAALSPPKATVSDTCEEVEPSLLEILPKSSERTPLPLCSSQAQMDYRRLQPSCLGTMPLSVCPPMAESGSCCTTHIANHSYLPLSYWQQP


biological target: T1, full length human TPO-R; assay: cell-based or functional assay

EC50 cell proliferation [nM]	EC50 microphysiometer [nM]	Binder
~200000	~200000	ADGPTLREWISFE (also: further groups not given here) [[drawing CHEM-US-00018] (SEQ ID NO:183)]
≤ 500	~200000	ADGPTLREWISFC (not fully specified; also: further groups not given here) [[drawing CHEM-US-00013] (SEQ ID NO:173)]
≤ 200000	~200000	KADGPTLREWISFE (also: further groups not given here) [[drawing CHEM-US-00014] (SEQ ID NO:181)]
≤ 200000	≤ 200000	EADGPTLREWISFK (also: further groups not given here) [[drawing CHEM-US-00015] (SEQ ID NO:182)]
≤ 200000	~200000	ADGPTLREWISFC (not fully specified; also: further groups not given here) [[drawing CHEM-US-00006] (SEQ ID NO:173)]
≤ 500	~200000	ADGPTLREWISFC (also: further groups not given here) [[drawing CHEM-US-00017] (SEQ ID NO:173)]
≤ 500	≤ 200000	ADGPTLREWISFC (also: further groups not given here) [[drawing CHEM-US-00016] (SEQ ID NO:173)]

biological target: T1, full length human TPO-R; assay: cell-based or functional assay; remark: another data set of the same source

EC50 cell proliferation [nM]	EC50 microphysiometer [nM]	Binder
~200000	~200000	TLREWISFC (also: further groups not given here) [[drawing CHEM-US-00042] (SEQ ID NO:192)(SEQ ID NO:192)]
~200000	≤ 500	TLREWISFC (also: further groups not given here) [[drawing CHEM-US-00043] (SEQ ID NO:192)(SEQ ID NO:192)]
≤ 500	≤ 500	ADGPTLREWISFC (also: further groups not given here) [[drawing CHEM-US-00036] (SEQ ID NO:173)(SEQ ID NO:173)]
≤ 500		PTLREWISFC (not fully specified; also: further groups not given here) [[drawing CHEM-US-00040] (SEQ ID NO:191)(SEQ ID NO:191)]
≤ 500		GPTLREWISFC (not fully specified; also: further groups not given here) [[drawing CHEM-US-00038] (SEQ ID NO:190)(SEQ ID NO:190)]
≤ 500	≤ 500	GPTLREWISFC (not fully specified; also: further groups not given here) [[drawing CHEM-US-00039] (SEQ ID NO:190)(SEQ ID NO:190)]
≤ 500		ADGPTLREWISFC (also: further groups not given here) [[drawing CHEM-US-00035] (SEQ ID NO:173)(SEQ ID NO:173)]
≤ 500	≤ 500	ADGPTLREWISFC (also: further groups not given here) [[drawing CHEM-US-00027] / [drawing CHEM-US-00028] (SEQ ID NO:173)]
≤ 500	≤ 500	PTLREWISFC (not fully specified; also: further groups not given here) [[drawing CHEM-US-00041] (SEQ ID NO:191)(SEQ ID NO:191)]

biological target: T1, full length human TPO-R; assay: cell-based or functional assay; remark: another data set of the same source

EC50 cell proliferation [nM]	EC50 microphysiometer [nM]	Binder
≤ 200000		CADGPTLREWI[NMeV]FC (disulfide 1-14 (inferred); not fully specified) [SEQ ID NO:12 cyclized, S - (N-Me-Val)]
≤ 500		CADGPTLREWI[Abu]FC (disulfide 1-14 (inferred); not fully specified) [SEQ ID NO:12 cyclized, S - Abu]
≤ 500	≤ 500	CADGPTLREWIS[Phe(4-NO2)]C (disulfide 1-14 (inferred); not fully specified) [SEQ ID NO:12 cyclized, F - (p-Nitrophe)]
≤ 500	≤ 500	CADGPTLREWIS[Phg]C (disulfide 1-14 (inferred); not fully specified) [SEQ ID NO:12 cyclized, F - (Phenylgly)]
≤ 500		CADGPTLREWIS[NMeF]C (disulfide 1-14 (inferred); not fully specified) [SEQ ID NO:12 cyclized, F - (N-Me-Phe)]
≤ 500	≤ 200000	CADGPTLREWIS[Phe(3,4-Cl2)]C (disulfide 1-14 (inferred); not fully specified) [SEQ ID NO:12 cyclized, F - (3,4-di-Cl-Phe)]
~200000		CADGPTLREWI[Sar]FC (disulfide 1-14 (inferred); not fully specified) [SEQ ID NO:12 cyclized, S - Sar]
≤ 500		CADGPTLREWIS[2Thi]C (disulfide 1-14 (inferred); not fully specified) [SEQ ID NO:12 cyclized, F - Thi]
≤ 500		CADGPTLREWIS[DiPhAla]C (disulfide 1-14 (inferred); not fully specified) [SEQ ID NO:12 cyclized, F - (DiPh - Ala)]
≤ 500		CADGPTLREWIS[1Nal]C (disulfide 1-14 (inferred); not fully specified) [SEQ ID NO:12 cyclized, F - (1-Nal)]
~200000		CADGPTLREWI[NMeA]FC (disulfide 1-14 (inferred); not fully specified) [SEQ ID NO:12 cyclized, S - (N-Me-Ala)]
≤ 500	≤ 200000	CADGPTLREWI[Aib]FC (disulfide 1-14 (inferred); not fully specified) [SEQ ID NO:12 cyclized, S - Aib]
≤ 500	≤ 500	CADGPTLREWIS[Cha]C (disulfide 1-14 (inferred); not fully specified) [SEQ ID NO:12 cyclized, F - CHA]
≤ 500	≤ 500	CADGPTLREWIS[hPhe]C (disulfide 1-14 (inferred); not fully specified) [SEQ ID NO:12 cyclized, F - Homo-Phe]
≤ 500		CADGPTLREWIS[Phe(4-Cl)]C (disulfide 1-14 (inferred); not fully specified) [SEQ ID NO:12 cyclized, F - (p-Cl-Phe)]
~200000		CADGPTLREWI[Tle]FC (disulfide 1-14 (inferred); not fully specified) [SEQ ID NO:12 cyclized, S - (t-Bu-Gly)]
≤ 500		CADGPTLREWIS[Ser(Bzl)]C (disulfide 1-14 (inferred); not fully specified) [SEQ ID NO:12 cyclized, F - (Ser(Bzl))]
~200000		CADGPTLREWIS[NMeA]C (disulfide 1-14 (inferred); not fully specified) [SEQ ID NO:12 cyclized, F - (N-Me-Ala)]
≤ 500		CADGPTLREWIS[Pyridylala]C (not fully specified (bridges); also: cyclized, type not given here) [SEQ ID NO:12 cyclized, F - (Pyridylala)]
≤ 500	≤ 500	CADGPTLREWI[Nva]FC (disulfide 1-14 (inferred); not fully specified) [SEQ ID NO:12 cyclized, S - Nva]
≤ 500	≤ 500	CADGPTLREWIS[2Nal]C (disulfide 1-14 (inferred); not fully specified) [SEQ ID NO:12 cyclized, F - (2-Nal)]
≤ 500		CADGPTLREWI[Nle]FC (disulfide 1-14 (inferred); not fully specified) [SEQ ID NO:12 cyclized, S - (Nor-Leu)]
≤ 200000		CADGPTLREWI[NMeL]FC (disulfide 1-14 (inferred); not fully specified) [SEQ ID NO:12 cyclized, S - (N-Me-Leu)]
